Results: publication PMC5484684, “Intracellular targeting of annexin A2 inhibits tumor cell adhesion, migration, and in vivo grafting” (Scientific Reports, 2017)
Ends that are not written are not given here.

Key:
[1] = molecular target: T1, human recombinant annexin A2 (human, UniProt P07355 1-339); assay: phage binding assay; recombinant proteins in 96-well plates; iPhage input 10^9 TU/well; bound phage particles quantified by bacterial infection; TU normalised on an insertless iPhage; settings: both partners purified
T1 construct: annexin A2, human, recombinant; also called ANXA2; source: bought: Amprox
T1 sequence (P07355 whole entry): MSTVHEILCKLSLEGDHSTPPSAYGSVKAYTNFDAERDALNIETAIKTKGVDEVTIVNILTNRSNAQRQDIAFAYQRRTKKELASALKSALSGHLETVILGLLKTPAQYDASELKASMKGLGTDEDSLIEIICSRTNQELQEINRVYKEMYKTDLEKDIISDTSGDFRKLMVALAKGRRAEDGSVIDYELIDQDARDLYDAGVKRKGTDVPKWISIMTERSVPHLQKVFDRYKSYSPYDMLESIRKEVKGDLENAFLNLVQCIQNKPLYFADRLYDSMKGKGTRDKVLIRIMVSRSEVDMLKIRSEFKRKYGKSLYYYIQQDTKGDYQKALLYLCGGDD

[2] = molecular target: T2, GST-fused recombinant annexin A2 (human, UniProt P07355 1-339); assay: as above; settings: both partners purified
T2 construct: May be the same protein as the annexin A2 bought from Amprox
T2 sequence (P07355 whole entry, the tested form may be a part): as the sequence (P07355 whole entry) above

B1: LGRFYAASG-displaying iPhage (peptide)
peptide: LGRFYAASG
modifications: also: phage-displayed
notes: peptide selected from the X4YX4 iPhage random peptide library in KS1767 cells; the alanine variants were cloned into the fUSE5 vector; source: recovered and amplified by E. coli infection, and purified
binding result [1]: binds | binding result [2]: binds
